Earlier results as cited in patent publication US20180022822A1, “NOVEL ANTI-FIBROBLAST ACTIVATION PROTEIN (FAP) BINDING AGENTS AND USES THEREOF” (Mabimmune Diagnostics AG, priority 2016, published 2018).

How the values were obtained:
[1] = pH 7.8
[2] = in vivo

Row | Compound | stability of inhibitory activity [1] | patients with change in pharmacokinetics and reduced tumor uptake ([2]; human) | patients who developed human-anti-human antibodies (HAHA) [2]
1 | CC(C)[C@H](N)C(=O)N1CCC[C@H]1B(O)O [Talabostat, Val-boroPro] | rapidly loses inhibitory activity |  | 
2 | Sibrotuzumab: humanized version of the F19 antibody that specifically binds to human FAP |  | 4 of 26 | 8 of 26
